Reference: patent publication US20250109186A1
Numbering of substitutions follows the chain as printed. Read-outs that look alike come from different tables or passages of the source.

Legend:
[1] = molecular target: SARS-CoV-2 Omicron BA.1 spike ectodomain (residues 14-1207) with C-terminal His tag (SARS-CoV-2 Omicron BA.1 subvariant)
[2] = molecular target: SARS-CoV-2 Omicron BA.1 RBD (residues 316-526) with C-terminal His tag (SARS-CoV-2 Omicron BA.1 subvariant)
[3] = molecular target: SARS-CoV-2 Omicron XBB.1.5 RBD (residues 315-525) with C-terminal His tag (SARS-CoV-2 Omicron XBB.1.5 subvariant); assay: SPR (Biacore S200), CM5 chip, His-tagged proteins, 1:1 model
[4] = molecular target: SARS-CoV-2 Omicron BA.1 RBD (residues 316-526) with C-terminal His tag (SARS-CoV-2 Omicron BA.1 subvariant); assay: as above
[5] = molecular target: SARS-CoV-2 Omicron XBB.1.5 spike ectodomain (residues 14-1207) with C-terminal His tag (SARS-CoV-2 Omicron XBB.1.5 subvariant)

B1: Nanosota-3A, HA- and His-double-tagged (VHH)
VHH: QVQLQESGGGLVQAGGSLRLSCAASGSIFSPNTMGWFRQALGKQREMVAVISSIASTQYANFVKGRFTITRDNTKNTVHLQMNSLIPEDTAVYYCYAVDKSQDYWGQGTQVTVSS
- EC50 (read off the curve) [1]: 0.1 µg/mL

B2: Nanosota-3A with C-terminal His tag (VHH)
VHH: B1 VHH
- Kd [2]: 17.3 nM

B3: Nanosota-3B, HA- and His-double-tagged (VHH)
VHH: B1 VHH with V50F, Q58S
- EC50 (read off the curve) [1]: 0.02 µg/mL

B4: Nanosota-3C with His6 tag and HA tag (VHH)
VHH: B1 VHH with M47G, V50F, Q58S, A60W, N61L, F62P
- Kd [3]: 2.04 nM
- Kd [4]: 27.3 nM
- EC50 (read off the curve) [5]: 0.03 µg/mL
